Results: patent US12202907B2, “Nucleic acids encoding and methods of producing proteins comprising antibody chains” (Innate Pharma, priority 2018, dated 2025)

What was measured:
Format in all cases: binding
[1] = system: CHO cells expressing cynomolgus (Macaca fascicularis) CD39; test: Antibody titration on CHO-cyCD39 by flow cytometry; details: qualitative
Protocol: (§1) Antibody I-394 was tested in two repeated experiments for binding to CHO cells expressing human CD39, CHO cells expressing cynomolgus (Macaca fascicularis) CD39, CHO cells expressing murine CD39, and human Ramos lymphoma cells (ATCC™, reference CRL-1596). Cells were incubated with various concentration of unlabeled anti-CD39 antibody from 30 μg/ml to 5×10^−4 μg/ml, for 30 minutes at 4° C. After washes, cells were incubated with Goat anti-mouse H+L labeled secondary antibody for 30 min at 4° C.

[2] = target: T1, CHO cells expressing human CD39 (Homo sapiens, UniProt P49961); test: Antibody titration on CHO-huCD39 by flow cytometry; details: qualitative
T1 construct: expressed in transfected cells; host or cells: CHO
T1 sequence (P49961 1-510): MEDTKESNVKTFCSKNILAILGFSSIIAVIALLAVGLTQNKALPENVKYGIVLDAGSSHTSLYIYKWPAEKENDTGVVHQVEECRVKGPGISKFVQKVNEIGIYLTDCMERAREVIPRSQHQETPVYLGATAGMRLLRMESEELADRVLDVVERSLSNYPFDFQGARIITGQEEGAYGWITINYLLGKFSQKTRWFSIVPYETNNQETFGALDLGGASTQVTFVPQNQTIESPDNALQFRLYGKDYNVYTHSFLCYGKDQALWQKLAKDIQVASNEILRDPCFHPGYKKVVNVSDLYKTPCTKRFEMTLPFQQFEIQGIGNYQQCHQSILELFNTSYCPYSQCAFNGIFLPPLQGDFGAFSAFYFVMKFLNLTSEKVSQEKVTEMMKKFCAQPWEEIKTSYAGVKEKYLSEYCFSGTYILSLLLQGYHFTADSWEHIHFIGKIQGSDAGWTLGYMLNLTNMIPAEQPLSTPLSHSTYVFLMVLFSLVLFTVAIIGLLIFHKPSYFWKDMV
Protocol: as §1

[3] = target: T2, Human CD39-L1 (NTPDase2, ENTPD2) (Homo sapiens, UniProt Q9Y5L3); test: ELISA titration on CD39-L1
T2 sequence (Q9Y5L3 1-472 isoform Q9Y5L3-2): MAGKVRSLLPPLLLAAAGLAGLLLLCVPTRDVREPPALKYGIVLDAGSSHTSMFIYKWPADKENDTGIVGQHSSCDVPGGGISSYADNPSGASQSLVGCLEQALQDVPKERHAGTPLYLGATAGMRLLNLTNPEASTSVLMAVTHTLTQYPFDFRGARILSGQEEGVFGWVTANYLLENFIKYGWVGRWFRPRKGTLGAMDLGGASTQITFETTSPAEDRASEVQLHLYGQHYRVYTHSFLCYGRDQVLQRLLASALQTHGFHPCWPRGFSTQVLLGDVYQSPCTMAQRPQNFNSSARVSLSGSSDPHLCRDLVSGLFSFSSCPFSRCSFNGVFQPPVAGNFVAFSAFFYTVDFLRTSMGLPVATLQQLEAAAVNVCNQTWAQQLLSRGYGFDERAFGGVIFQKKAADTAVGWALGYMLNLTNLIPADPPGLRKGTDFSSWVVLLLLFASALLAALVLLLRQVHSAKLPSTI
Protocol: (§2) Antibody I-394 was tested for binding to recombinant human CD39 isoforms (Rec-huCD39 isoforms) having amino acid sequences shown below were coated in 96-well plate in PBS 1X at 500 ng/ml or 1 μg/ml at 4° C. overnight. Wells were washed in TBS Tween® 20 (polysorbate 20), and further saturated 2H at RT in TBS Blocking buffer. Dose range concentration of primary antibody was incubated in TBS blocking buffer for 2 h at RT. Wells were washed in TBS Tween® 20 (polysorbate 20). […] Optical density was measured on Enspire™ at OD=450.

[4] = target: T3, CD39 (Homo sapiens, UniProt P49961); test: ELISA titration on huCD39 (vascular isoform); design: made in house
T3 sequence (P49961 1-510): T1 sequence (P49961 1-510)
Protocol: as §2

[5] = target: T4, human Ramos lymphoma cells (CD39) (Homo sapiens, UniProt P49961); test: Antibody titration on Ramos cells by flow cytometry; details: qualitative
T4 construct: cells that endogenously express CD39 at their surface; host or cells: Ramos
T4 sequence (P49961 1-510): T1 sequence (P49961 1-510)
Protocol: as §1

[6] = target: T5, Human CD39-L4 (NTPDase5, ENTPD5) (Homo sapiens, UniProt O75356); test: ELISA titration on CD39-L4
T5 sequence (O75356 25-428): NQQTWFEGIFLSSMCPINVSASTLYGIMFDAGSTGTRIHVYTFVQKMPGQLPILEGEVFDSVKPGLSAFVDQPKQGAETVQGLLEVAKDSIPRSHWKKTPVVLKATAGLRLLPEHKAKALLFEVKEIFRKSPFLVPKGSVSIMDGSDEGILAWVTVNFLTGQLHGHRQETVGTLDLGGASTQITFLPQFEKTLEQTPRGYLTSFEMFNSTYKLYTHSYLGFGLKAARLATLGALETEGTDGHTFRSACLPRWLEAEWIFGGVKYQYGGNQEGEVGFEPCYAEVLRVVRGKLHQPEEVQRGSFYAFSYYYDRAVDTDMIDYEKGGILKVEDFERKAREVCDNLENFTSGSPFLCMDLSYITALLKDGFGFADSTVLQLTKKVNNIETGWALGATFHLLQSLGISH
Protocol: as §2

binding to cells expressing human CD39 (CHO-huCD39) [2]: bound
binding to CD39 in ELISA [4]: bound to the CD39
binding to Ramos lymphoma cells [5]: bound
Substance: I-394: anti-CD39 antibody, VH SEQ ID NO: 6, VL SEQ ID NO: 7, human IgG1 Fc with L234A/L235E/G237A/A330S/P331S
binding to cells expressing cynomolgus CD39 (CHO-cyCD39) [1]: bound
binding to CD39-L1 in ELISA [3]: not to any of the isoforms CD39-L1, -L2, -L3 or -L4
binding to CD39-L4 in ELISA [6]: not to any of the isoforms CD39-L1, -L2, -L3 or -L4
